The values that follow come from publication PMC6956814, “Deubiquitinase USP28 inhibits ubiquitin ligase KLHL2-mediated uridine-cytidine kinase 1 degradation and confers sensitivity to 5'-azacytidine-resistant human leukemia cells” (Theranostics, 2020).

The experiment deals with T1, His-tagged KLHL2 protein (human, UniProt O95198 1-593).
T1 construct: Kelch Like Family Member 2 (KLHL2), human; source: recombinant
T1 sequence (looked up): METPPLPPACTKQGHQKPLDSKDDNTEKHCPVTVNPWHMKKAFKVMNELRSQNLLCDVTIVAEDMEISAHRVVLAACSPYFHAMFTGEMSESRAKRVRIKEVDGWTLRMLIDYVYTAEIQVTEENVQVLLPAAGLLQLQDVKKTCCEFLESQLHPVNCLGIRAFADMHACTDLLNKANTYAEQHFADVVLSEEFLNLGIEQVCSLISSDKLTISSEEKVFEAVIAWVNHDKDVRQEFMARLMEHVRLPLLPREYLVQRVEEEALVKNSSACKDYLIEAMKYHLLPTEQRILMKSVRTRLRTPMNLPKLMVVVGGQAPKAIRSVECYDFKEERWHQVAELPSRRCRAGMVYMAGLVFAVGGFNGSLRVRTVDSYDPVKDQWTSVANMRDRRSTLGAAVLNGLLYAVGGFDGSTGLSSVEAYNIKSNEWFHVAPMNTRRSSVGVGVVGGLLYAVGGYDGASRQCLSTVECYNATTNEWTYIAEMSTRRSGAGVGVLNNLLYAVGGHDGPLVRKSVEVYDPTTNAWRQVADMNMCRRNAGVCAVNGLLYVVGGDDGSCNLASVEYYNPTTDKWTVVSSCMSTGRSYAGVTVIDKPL
In words: pull-down; recombinant GST-UCK1 protein incubated with His-tagged KLHL2 protein; GST pull-down. The following applies: both partners purified.

B1: Recombinant GST-UCK1 protein (enzyme, human, UniProt Q9HA47 1-277, looked up)
chain: MASAGGEDCESPAPEADRPHQRPFLIGVSGGTASGKSTVCEKIMELLGQNEVEQRQRKVVILSQDRFYKVLTAEQKAKALKGQYNFDHPDAFDNDLMHRTLKNIVEGKTVEVPTYDFVTHSRLPETTVVYPADVVLFEGILVFYSQEIRDMFHLRLFVDTDSDVRLSRRVLRDVRRGRDLEQILTQYTTFVKPAFEEFCLPTKKYADVIIPRGVDNMVAINLIVQHIQDILNGDICKWHRGGSNGRSYKRTFSEPGDHPGMLTSGKRSHLESSSRPH
notes: uridine-cytidine kinase 1 (UCK1), human; source: recombinant
Take B1: the binding result was “binds”.
